# Laboratory results: the supplement of paper PMC10126150
# ± gives the standard deviation of the averaged measurements.
# System: ATP
# Test: switch fluorescence ratio, 500 uM ATP over buffer (Cy3 cluster intensity, sum of 5 cycles each) (fold (ratio)); higher = stronger signal-on switching upon ATP binding; sequences stand for … in TCGTCGGCAGCGTCAGATGTGTATAAGAGACAGTTTTTTTTTTTTTTTTTTTTTTTTT…TC
# Conditions: aptamer strand: ATP DNA aptamer (quencher-CACCTGGGGGAGTATTGCGGAGGAAGG + anchor), 100 nM annealed; ATP concentration: 500 uM
# Method in brief: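 Imaging in selection buffer was followed by imaging after 15 min with 500 uM ATP at 22 °C, for Cy3-labelled switching-strand clusters annealed to 100 nM quencher-labelled ATP aptamer on a modified Illumina MiSeq flow-cell. Five of these buffer/ATP cycles ran, separated by NaOH stripping and re-annealing. The fluorescence ratio per cluster is summed target-cycle over summed buffer-cycle Cy3 intensity, averaged per switch-domain sequence; clusters outside 100-1000 RFU were removed.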
# 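Further: ATP exposure 15 min at 22 °C before imaging.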
row,Sequence,switch fluorescence ratio
1,GCAGTTAAGT,1 ± 0.037
2,GCAGTTAGGG,0.995 ± 0.079
3,GCAGTTGGTA,0.989 ± 0.02
4,GCAGTTGGTG,0.958 ± 0.043
5,GCAGTTTTGG,0.992 ± 0.015
6,GCATAAAACT,1.04 ± 0.014
7,GCATAAACGC,1.06 ± 0.044
8,GCATAAAGGA,0.9684 ± 0.0075
9,GCATAAGGTT,0.993 ± 0.031
10,GCATAGCGCC,1.04 ± 0.013
11,GCATAGGGCG,1.01 ± 0.018
12,GCATATCTAG,1.03 ± 0.041
13,GCATCAATTT,1.016 ± 0.0012
14,GCATCGGGGT,1 ± 0.032
15,GCATCGTAGA,1.07 ± 0.015
16,GCATCTACGG,1.02 ± 0.019
17,GCATCTCAGC,0.991 ± 0.038
18,GCATGAGCTG,0.981 ± 0.014
19,GCATGATGCG,0.994 ± 0.013
20,GCATGATGGC,1.03 ± 0.063
21,GCATGGAAGG,1.013 ± 0.0065
22,GCATGGGGTA,1.05 ± 0.051
23,GCATGGTGGC,1.013 ± 0.0028
24,GCATGTGGCT,0.994 ± 0.024
25,GCATGTGGGT,0.986 ± 0.017

row,Sequence,switch fluorescence ratio
1,GCATGTTGGG,1.01 ± 0.029
2,GCATTAAAAT,0.9578 ± 0.0013
3,GCATTACCGG,1.03 ± 0.04
4,GCATTAGGGC,1.07 ± 0.14
5,GCATTATATG,1 ± 0.03
6,GCATTATGGG,1.02 ± 0.034
7,GCATTATTCA,1.04 ± 0.014
8,GCATTGAGGT,1 ± 0.013
9,GCATTGCGGC,0.991 ± 0.019
10,GCATTGGATA,1 ± 0.014
11,GCATTTTGGG,0.986 ± 0.033
12,GCATTTTGTT,0.986 ± 0.019
13,GCATTTTTAC,1.19 ± 0.023
14,GCCAAAAGGG,1.015 ± 0.008
15,GCCAAAGGGA,1.01 ± 0.063
16,GCCACGAGGG,1.025 ± 0.0062
17,GCCACGGAGT,0.964 ± 0.015
18,GCCACTTACA,1.36 ± 0.025
19,GCCAGACGTG,0.995 ± 0.017
20,GCCAGGGGAG,1.1 ± 0.12
21,GCCAGGGGTG,1.47 ± 0.033
22,GCCAGGGTGG,1.01 ± 0.039
23,GCCAGTCTTT,1 ± 0.012
24,GCCATATACA,1.035 ± 0.01
25,GCCATGGCTT,1.01 ± 0.0039

row,Sequence,switch fluorescence ratio
1,GCCATGTTGG,1.004 ± 0.0033
2,GCCATTAAAC,0.972 ± 0.03
3,GCCATTAGAC,1.04 ± 0.049
4,GCCATTAGGA,1.015 ± 0.0049
5,GCCCAAAAGA,1.02 ± 0.02
6,GCCCACCGAT,1.06 ± 0.031
7,GCCCACGGGA,1.07 ± 0.039
8,GCCCAGTCAT,0.997 ± 0.023
9,GCCCAGTCCT,1.03 ± 0.02
10,GCCCGGGGTA,1.09 ± 0.12
11,GCCCGTCTGA,0.985 ± 0.075
12,GCCCGTTACG,1.02 ± 0.055
13,GCCCGTTTTT,1 ± 0.029
14,GCCCTGCAAT,1.17 ± 0.056
15,GCCCTTGGTT,1.02 ± 0.074
16,GCCCTTGTTT,1.03 ± 0.046
17,GCCGAAAATA,0.988 ± 0.012
18,GCCGAGGGGA,1.05 ± 0.025
19,GCCGAGGTGA,1.09 ± 0.13
20,GCCGATAGGT,1.08 ± 0.12
21,GCCGATGCGG,0.988 ± 0.013
22,GCCGCAGGGA,2.3 ± 1.9
23,GCCGCATTGA,2.01 ± 0.11
24,GCCGCCGGGG,0.996 ± 0.032
25,GCCGCTAAGG,0.9968 ± 0.0035

row,Sequence,switch fluorescence ratio
1,GCCGGGAAAC,1.043 ± 0.0036
2,GCCGGGAGTC,1 ± 0.02
3,GCCGGGGAGT,0.989 ± 0.027
4,GCCGGGGCAA,1.33 ± 0.024
5,GCCGGGGCCT,1.03 ± 0.042
6,GCCGGGGGCG,0.982 ± 0.051
7,GCCGGGGGGA,1.03 ± 0.086
8,GCCGGGTTGC,1.01 ± 0.013
9,GCCGGTACAA,1.01 ± 0.073
10,GCCGGTCGGG,0.985 ± 0.013
11,GCCGGTTTTC,1.03 ± 0.044
12,GCCGTGTATG,1.06 ± 0.14
13,GCCGTTGTGC,0.984 ± 0.069
14,GCCTATTTTG,0.962 ± 0.07
15,GCCTCTTAAG,1 ± 0.032
16,GCCTGAAAAA,0.986 ± 0.033
17,GCCTGCATTT,1.02 ± 0.021
18,GCCTGCGGGA,1.1 ± 0.13
19,GCCTGTGGGA,1.01 ± 0.035
20,GCCTTACATT,1.01 ± 0.039
21,GCCTTCAATA,1.0946 ± 0.00028
22,GCCTTCGAGG,1.03 ± 0.012
23,GCCTTCGGAA,3.13 ± 0.065
24,GCCTTGATCT,0.996 ± 0.016
25,GCCTTTAGCT,0.943 ± 0.011
